Experimental data taken from paper PMC3749956 (PLoS Pathogens, 2013).

Columns and labels:
[1] = target: tA27-WT (aa 21–84, C71A/C72A, extra N-terminal tryptophan) (vaccinia virus (Western Reserve strain)) (UniProt P11258); test: SEC-MALS
[2] = target: tA27-WT (aa 21–84, C71A/C72A, extra N-terminal tryptophan) (vaccinia virus (Western Reserve strain)) (UniProt P11258); test: AUC
[3] = target: the molecule itself; test: non-reducing SDS-PAGE with immunoblot (disulfide-linked complexes)

For “tA27-WT (aa 21–84, C71A/C72A, extra N-terminal tryptophan) (from UniProt P11258 21-84) (domain or fragment)”, which stoichiometry N [1] is on record?
The stoichiometry N was 2.

And the stoichiometry N [2]?
The stoichiometry N was 2.

B1: Vaccinia virus A27 protein, full length wild type (natural protein)
chain: MDGTLFPGDDDLAIPATEFFSTKAAKKPEAKREAIVKADEDDNEETLKQRLTNLEKKITNVTTKFEQIEKCCKRNDEVLFRLENHAETLRAAMISLAKKIDVQTGRRPYE
B1 was tested. Which “stoichiometry N” value [3] did it give?
The value was 2.
